# Experiments:
# EndoE-GH18L = target: T1, EndoE-GH18L (Enterococcus faecalis, UniProt Q6U890); test: X-ray crystal structure of the complex, […] Å; format: binding; conditions: co-crystallised with 2.5 mM Man5GlcNAc; pH 6.5 Bis-Tris propane; GH18 active-site groove
# T1 construct: gene ndoE; GH18 domain plus linker region (3HB-1, 3HB-2), residues 56-486; GST tag cut by TEV (GSG linker); E. coli BL21(DE3)
# [1] = test system: CC(=O)N[C@H]1[C@H](Oc2ccc([N+](=O)[O-])cc2)O[C@H](CO)[C@@H](O)[C@@H]1O; test: purified protein; conditions: PCTP buffer pH 8, 5 nM enzyme, 0.09-12 mM substrate, GH20 active site within full-length EndoE
# [2] = test system: CC(=O)N[C@H]1[C@H](Oc2ccc([N+](=O)[O-])cc2)O[C@H](CO)[C@@H](O)[C@@H]1O; test: purified protein; format: biochemical, Enterococcus faecalis; conditions: PCTP buffer pH 8, 5 nM enzyme, 0.09-12 mM substrate, isolated GH20 domain
# T1 sequence (Q6U890 entry or part of it): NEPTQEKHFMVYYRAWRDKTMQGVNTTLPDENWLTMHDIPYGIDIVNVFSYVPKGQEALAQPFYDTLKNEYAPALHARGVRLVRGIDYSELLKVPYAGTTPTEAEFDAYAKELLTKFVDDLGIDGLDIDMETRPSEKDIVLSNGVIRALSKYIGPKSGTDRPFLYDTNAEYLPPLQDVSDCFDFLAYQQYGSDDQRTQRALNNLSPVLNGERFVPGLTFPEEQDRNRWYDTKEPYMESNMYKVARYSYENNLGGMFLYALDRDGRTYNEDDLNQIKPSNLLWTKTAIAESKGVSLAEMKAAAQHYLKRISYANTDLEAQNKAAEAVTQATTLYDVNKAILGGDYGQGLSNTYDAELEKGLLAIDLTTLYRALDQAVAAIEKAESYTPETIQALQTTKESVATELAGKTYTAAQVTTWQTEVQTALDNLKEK
molecule,measurement,setting,value
"CC(=O)N[C@H]1C(O)O[C@H](CO)[C@@H](O[C@@H]2O[C@H](CO[C@H]3O[C@H](CO[C@H]4O[C@H](CO)[C@@H](O)[C@H](O)[C@@H]4O)[C@@H](O)[C@H](O[C@H]4O[C@H](CO)[C@@H](O)[C@H](O)[C@@H]4O)[C@@H]3O)[C@@H](O)[C@H](O[C@H]3O[C@H](CO)[C@@H](O)[C@H](O)[C@@H]3O)[C@@H]2O)[C@@H]1O (some centres unmarked) [Man5, Man5GlcNAc]","X-ray crystal structure of the complex, 2.6 Å",EndoE-GH18L,crystal structure of EndoE-GH18L in complex with the Man5GlcNAc (Man5) product
EndoE (Enterococcus faecalis),Km,[1],450 µM
same,kcat,[1],41 s⁻¹
EndoE-GH20 (Enterococcus faecalis),Km,[2],970 µM
same,kcat,[2],86 s⁻¹

# — publication PMC8894350, “Mechanism of cooperative N-glycan processing by the multi-modular endoglycosidase EndoE” (Nature Communications, 2022)
